# Assay results from US20220049021A1.
# T1: human FLT3 on AML5 cells (human) (UniProt P36888)
# T1 sequence (looked up): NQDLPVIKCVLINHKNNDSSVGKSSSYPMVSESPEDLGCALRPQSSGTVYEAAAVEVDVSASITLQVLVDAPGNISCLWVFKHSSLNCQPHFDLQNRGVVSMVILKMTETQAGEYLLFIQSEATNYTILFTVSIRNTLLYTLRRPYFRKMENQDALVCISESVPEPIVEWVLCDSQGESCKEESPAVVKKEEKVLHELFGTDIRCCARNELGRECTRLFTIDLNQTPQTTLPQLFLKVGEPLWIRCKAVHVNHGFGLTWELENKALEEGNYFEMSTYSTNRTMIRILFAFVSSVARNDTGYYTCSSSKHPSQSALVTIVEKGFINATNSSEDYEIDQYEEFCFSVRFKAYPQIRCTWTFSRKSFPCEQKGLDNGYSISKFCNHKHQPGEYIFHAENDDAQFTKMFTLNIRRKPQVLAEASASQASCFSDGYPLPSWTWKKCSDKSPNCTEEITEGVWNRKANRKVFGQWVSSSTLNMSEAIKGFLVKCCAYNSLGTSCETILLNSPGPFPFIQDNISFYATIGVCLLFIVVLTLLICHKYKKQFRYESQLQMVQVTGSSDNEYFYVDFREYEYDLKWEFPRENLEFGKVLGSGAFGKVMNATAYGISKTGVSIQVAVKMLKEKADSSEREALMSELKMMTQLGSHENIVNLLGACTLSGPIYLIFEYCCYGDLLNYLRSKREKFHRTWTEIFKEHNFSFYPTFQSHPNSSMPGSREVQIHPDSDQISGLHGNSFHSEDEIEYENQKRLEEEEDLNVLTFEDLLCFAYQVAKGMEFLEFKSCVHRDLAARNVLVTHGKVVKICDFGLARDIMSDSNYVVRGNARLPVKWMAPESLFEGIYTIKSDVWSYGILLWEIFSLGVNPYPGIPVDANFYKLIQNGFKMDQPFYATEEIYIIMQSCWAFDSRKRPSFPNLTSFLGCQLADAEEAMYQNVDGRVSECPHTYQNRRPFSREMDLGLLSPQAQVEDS
# T2: mouse FLT3 on M1 cells (mouse) (UniProt Q00342)
# T2 sequence (looked up): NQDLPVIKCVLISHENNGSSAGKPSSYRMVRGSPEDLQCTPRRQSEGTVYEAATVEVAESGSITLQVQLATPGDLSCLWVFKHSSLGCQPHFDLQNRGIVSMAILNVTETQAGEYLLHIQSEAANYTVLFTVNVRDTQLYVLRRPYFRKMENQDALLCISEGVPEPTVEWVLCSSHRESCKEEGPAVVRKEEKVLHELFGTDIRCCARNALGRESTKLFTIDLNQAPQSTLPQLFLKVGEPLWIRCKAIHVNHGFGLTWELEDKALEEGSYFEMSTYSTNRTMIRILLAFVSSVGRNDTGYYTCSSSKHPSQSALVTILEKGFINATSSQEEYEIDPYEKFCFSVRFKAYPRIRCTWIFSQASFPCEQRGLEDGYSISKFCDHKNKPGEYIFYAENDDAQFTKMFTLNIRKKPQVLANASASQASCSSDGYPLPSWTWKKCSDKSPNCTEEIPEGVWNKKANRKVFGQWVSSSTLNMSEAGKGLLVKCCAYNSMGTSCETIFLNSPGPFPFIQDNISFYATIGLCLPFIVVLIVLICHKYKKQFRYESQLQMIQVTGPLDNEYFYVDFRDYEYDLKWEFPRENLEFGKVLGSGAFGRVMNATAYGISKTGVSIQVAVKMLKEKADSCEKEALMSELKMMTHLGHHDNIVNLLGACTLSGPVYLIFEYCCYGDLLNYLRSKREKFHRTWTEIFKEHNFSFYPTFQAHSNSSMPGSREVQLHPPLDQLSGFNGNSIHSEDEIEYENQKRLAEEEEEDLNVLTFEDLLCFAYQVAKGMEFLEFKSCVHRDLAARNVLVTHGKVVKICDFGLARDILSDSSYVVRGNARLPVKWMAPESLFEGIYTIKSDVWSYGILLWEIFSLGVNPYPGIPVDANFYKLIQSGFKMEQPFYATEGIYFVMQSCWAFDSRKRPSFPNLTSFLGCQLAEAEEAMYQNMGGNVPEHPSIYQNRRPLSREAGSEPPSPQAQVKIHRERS
# Key:
# [1] = target: T1, human FLT3 on AML5 cells (human); experiment: cell-based or functional assay
# [2] = target: T2, mouse FLT3 on M1 cells (mouse); experiment: cell-based or functional assay
Binder,"EC50 (nM), Inducing Proliferation of AML5 Cells [1] [nM]","EC50(nM), M1 IL-6 release assay [2] [nM]","Emax(pg/ml), M1 IL-6 release assay [2] [pg/mL]"
mouse FLT3-ligand mouse IgG2a (LALA-PG) fusion protein (SEQ ID NO:19) (Fc fusion) TPDCYFSHSPISSNFKVKFRELTDHLLKDYPVTVAVNLQDEKHCKALWSLFLAQRWIEQLKTVAGSKMQTLLEDVNTEIHFVTSCTFQPLPECLRFVQTNISHLLKDTCTQLLALKPCIGKACQNFSRCLEVQCQPDSSTLLPPRSPIALEATELPEPRGPTIKPCPPCKCPAPNAAGGPSVFIFPPKIKDVLMISLSPIVTCVVVDVSEDDPDVQISWFVNNVEVHTAQTQTHREDYNSTLRVVSALPIQHQDWMSGKEFKCKVNNKDLGAPIERTISKPKGSVRAPQVYVLPPPEEEMTKKQVTLTCMVTDFMPEDIYVEWTNNGKTELNYKNTEPVLDSDGSYFMYSKLRVEKKNWVERNSYSCSVVHEGLHNHHTTKSFSRTPGK,0.171,–,–
mouse FLT3-ligand mouse IgG2a (C136S LALA-PG) fusion protein (SEQ ID NO:20) (Fc fusion) TPDCYFSHSPISSNFKVKFRELTDHLLKDYPVTVAVNLQDEKHCKALWSLFLAQRWIEQLKTVAGSKMQTLLEDVNTEIHFVTSCTFQPLPECLRFVQTNISHLLKDTSTQLLALKPCIGKACQNFSRCLEVQCQPDSSTLLPPRSPIALEATELPEPRGPTIKPCPPCKCPAPNAAGGPSVFIFPPKIKDVLMISLSPIVTCVVVDVSEDDPDVQISWFVNNVEVHTAQTQTHREDYNSTLRVVSALPIQHQDWMSGKEFKCKVNNKDLGAPIERTISKPKGSVRAPQVYVLPPPEEEMTKKQVTLTCMVTDFMPEDIYVEWTNNGKTELNYKNTEPVLDSDGSYFMYSKLRVEKKNWVERNSYSCSVVHEGLHNHHTTKSFSRTPGK,0.115,–,–
"recombinant human FLT3-ligand human IgG1 fusion protein (Fc fusion, UniProt P49771 27-185, looked up, not shown: a dimerising Fc or GST) TQDCSFQHSPISSDFAVKIRELSDYLLQDYPVTVASNLQDEELCGGLWRLVLAQRWMERLKTVAGSKMQGLLERVNTEIHFVTKCAFQPPPSCLRFVQTNISRLLQETSEQLVALKPWITRQNFSRCLELQCQPDSSTLPPPWSPRPLEATAPTAPQPP",–,0.117,517
"recombinant human FLT3-ligand (ligand, UniProt P49771 27-185, looked up) TQDCSFQHSPISSDFAVKIRELSDYLLQDYPVTVASNLQDEELCGGLWRLVLAQRWMERLKTVAGSKMQGLLERVNTEIHFVTKCAFQPPPSCLRFVQTNISRLLQETSEQLVALKPWITRQNFSRCLELQCQPDSSTLPPPWSPRPLEATAPTAPQPP",0.039,0.024,392
